Results: patent publication US11833215B2, “CKIT antibody drug conjugates” (Novartis AG, priority 2014, dated 2023)
Entries after “also recorded” stand apart in the source; their conditions may differ.

What was measured:
primary human mast cells = experiment: mast cell degranulation (β-hexosaminidase release); format: cell-based; settings: 0.05-100 nM, 90 min
Method: Primary human mast cells were cultured from peripheral human blood according to the methods described by Saito et al., (supra). Mast cells, which had been in liquid culture for a minimum of one week, were pre-treated with 5% Ag-specific IgE JW8 (in-house batch ACE 27283), 95% non-specific monoclonal human IgE (Abbiotec, Cat #12030635, San Diego, CA) and 10 ng/mL rhIL-4 (R&D Systems Cat #204-IL, Minneapolis, MN) for 5 days at 37° C. The cells were then incubated with increasing concentrations (0.05-100 nM) of an isotype control IgG, the anti-human cKIT Abs, 20376 and NEG085, the anti-IgE Ab, LE27, or the NIP(5)BSA antigen, in the presence of a goat anti-human IgG (H+L) Fc-specific Ab (Jackson ImmunoResearch, Cat #109-005-008-JIR, West Grove, PA) for 90 min at 37° C. Cells were then centrifuged and the supernatants were transferred into 96-well black-walled plates prior to the addition of the β-hexosaminidase substrate. Following 90 min incubation at 37° C., the reaction was stopped by the addition of tris-base (Sigma, Cat #T1503-500G, pH 12, St. Louis, MO) and the fluorescence intensity was recorded on the Envision® plate reader.

[1] = test system: surface cKIT on GIST-T1 cells; experiment: cKIT Ab-mediated internalization by flow cytometry; format: cell-based; settings: 10 μg/ml, 37° C., 30 min to 24 hr
Method: The kinetics of cKIT antibody mediated internalization was evaluated by treating with antibody in a cell monolayer using a temperature shift method and flow cytometry readout. GIST-T1 (kindly provided by Dr. Takahiro Taguchi, Kochi U., Japan) cells were seeded at 2.5×10E5 cells/well in five 12-well tissue culture treated plates (BD Falcon 353043). The cells were incubated in a tissue culture incubator at 37° C. with 5% CO2 overnight. The following day medium was removed and replaced with 450 μl fresh medium. The cKIT antibodies NEG085, 20376 and an isotype control were prepared at 10×10 μg/ml concentration in appropriate cell culture medium and 50 μl of test cKIT antibody or isotype was added per well with final concentration of 10 μg/ml. All cells were incubated for 1 hr on ice, followed by two washes with 1 mL 1× Phosphate buffered saline (PBS) and resuspended in 500 μl cell culture medium. […] The following day, all samples were analyzed using the BD FACSCanto II 0 equipment using a HTS system (BD Biosciences, San Jose, CA). Samples were analyzed with FlowJo software to obtain the Geometric Mean values of fluorescence for the Phycoerythrin channel, FIG. 4A is a plot of % of initial cell surface binding vs Geometric Mean-PE 4° C. binding/Geometric Mean-PE timepoint at 37° C.×100.

B1: NEG085: anti-cKIT antibody of Table 3, VH SEQ ID NO 82, VL SEQ ID NO 91 (antibody, listed as Homo sapiens, V domains shown)
VH: EVQLVESGGGLVQPGGSLRLSCAASGFAFSGYYMAWVRQAPGKGLEWVANINYPGSSTYYLDSVKGRFTISRDNAKNSLYLQMNSLRAEDTAVYYCARGDYYGTTYWYFDVWGQGTTVTVSS
VL: DIQMTQSPSSLSASVGDRVTITCRASQSISSYLNWYQQKPGKAPKLLIYYTSRLQSGVPSRFSGSGSGTDFTLTISSLQPEDFATYYCQQGRRLWSFGGGTKVEIK
degranulation of primary human mast cells (primary human mast cells): do not mediate primary human mast cell degranulation; also recorded: do not induce mast cell degranulation
internalization of surface cKIT on GIST-T1 cells [1]: mediate rapid internalization; also recorded: rapidly internalized
